Where a chain is given by its changes, count along the chain named. Where “and” joins values, the source holds several entries; their conditions need not be identical. Equal values may be shown once. Read-outs that look alike come from different tables or passages of the source.
Columns and labels:
[1] = biological target: T1, long-neurotoxin-taipan, recombinant, Taipan-Avi-His (coastal taipan (Oxyuranus scutatellus), UniProt A8HDK9 22-92)
T1 sequence: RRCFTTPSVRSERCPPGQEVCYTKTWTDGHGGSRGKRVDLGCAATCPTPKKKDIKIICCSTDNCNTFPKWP

[2] = biological target: T2, long-neurotoxin-cobra (naja) (alpha-neurotoxin), recombinant, Cobra-Avi-His (cape cobra (Naja nivea), UniProt P01390 1-71)
T2 sequence: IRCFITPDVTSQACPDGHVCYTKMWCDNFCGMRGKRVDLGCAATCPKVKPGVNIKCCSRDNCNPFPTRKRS

[3] = biological target: T3, long-neurotoxin-mamba (dendroapsis) (alpha-elapitoxin-dpp2d), recombinant, Mamba-Avi-His (black mamba (Dendroaspis polylepsis), UniProt C0HJD7 1-72)
T3 sequence: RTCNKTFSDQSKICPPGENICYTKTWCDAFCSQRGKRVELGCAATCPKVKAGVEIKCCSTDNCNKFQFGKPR

[4] = biological target: T1, long-neurotoxin-taipan, recombinant, …; assay: off-rate kinetics; platform not named
[5] = biological target: T3, long-neurotoxin-mamba (dendroapsis) …; assay: off-rate kinetics; platform not named
[6] = biological target: T1, long-neurotoxin-taipan, recombinant, …; remark: listed apart in the source
[7] = biological target: T4, long-neurotoxin-krait (bungarus) (alpha-bungarotoxin) (krait (Bungarus caeruleus), UniProt D2N116 3-76); assay: off-rate kinetics; platform not named
T4 construct: also called Krait LNX; long-neurotoxin from Krait
T4 sequence: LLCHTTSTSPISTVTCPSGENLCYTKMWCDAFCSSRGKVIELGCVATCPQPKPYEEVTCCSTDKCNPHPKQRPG

B1: SNEURO_P01_B11 (antibody, V domains shown)
VH: QVQLQESGGGLVQPGGSLRLSCAASGFTFSNFDMHWVRQSPGKGLEWVSGLDHSGGAHYAGSVKGRFTISREDAKNSLDLQMNNLRVDDTAVYFCVRGTLYHYTSGSYYSDAFDIWGQGTLVTVSS
VL: DIVMTQSPSSLSASVGDRVTITCRASQGISDNLNWYQQKPGKAPKLLIYAASTLQSGVPSRLSGSGSGTDFTLTISSLQPEDFATYYCQQANSFPLTFGGGTKVEIKR
- Kd [1]: 35 nM
- koff [1]: 0.0052 s⁻¹
- kon [1]: 150000 M⁻¹ s⁻¹
- Kd [2]: 0.41 nM
- koff [2]: 9e-05 s⁻¹
- kon [2]: 220000 M⁻¹ s⁻¹
- Kd [3]: 2.1 nM
- koff [3]: 0.00038 s⁻¹
- kon [3]: 180000 M⁻¹ s⁻¹

B2: SNEURO_P01_D09 FW germlined (antibody, V domains shown)
VH: B1 VH with Q1E, Q5V, S40A, P41T, D73N, D79Y, N84S, V87A, D88G, F94Y
VL: DIQMTQSPSSLSASVGDRVTITCQASQDISNYLNWYQQKPGKAPKLLIYAASSLESGVPSRFSGSGSGTDFTLTISSLQPEDFATYYCQQANSFPYTFGQGTKVEIK
- koff [4]: 0.000366 s⁻¹
- koff [5]: 0.000304 s⁻¹

B3: SNEURO_P01_D09 (antibody, V domains shown)
VH: B1 VH with Q1E, Q5V, L11F
VL: EIVLTQSPSSLSASVGDRVTITCQASQDISNYLNWYQQKPGKAPKLLIYAASSLESGVPSRFSGSGSGTDFTLTISSQQPEDFATYYCQQANSFPYTFGQGTKVEIKR
- Kd [6]: 0.49 nM and 0.96 nM
- Kd [1]: 1.5 nM

B4: SNEURO_P01_D09 VH germlined (antibody, V domains shown)
VH: B1 VH with Q1E, Q5V, S40A, P41T, D73N, D79Y, N84S, V87A, D88G, F94Y
VL: B2 VL with D1E, Q3V, M4L, L78Q
- koff [4]: 0.000488 s⁻¹
- koff [5]: 8.54e-05 s⁻¹

B5: SNEURO_P01_D09 VK L3 NS->QS (antibody, V domains shown)
VH: B1 VH with Q1E, Q5V, L11F
VL: B3 VL with N92Q
- koff [4]: 0.000304 s⁻¹

B6: SNEURO_P01_D09 VK germlined (antibody, V domains shown)
VH: B1 VH with Q1E, Q5V, L11F
VL: B2 VL
- koff [4]: 0.000392 s⁻¹
- koff [7]: 5.59e-05 s⁻¹
- koff [5]: 6.95e-05 s⁻¹

B7: SNEURO_P01_D09 VK L3 NS->NT (antibody, V domains shown)
VH: B1 VH with Q1E, Q5V, L11F
VL: B3 VL with S93T
- koff [4]: 0.000769 s⁻¹
